Article PMC3756332 (Scientific Reports, 2013)

Biological target: T1, rabbit cytochrome P450 2B4 (rabbit, UniProt P00178 1-491)
T1 sequence (looked up): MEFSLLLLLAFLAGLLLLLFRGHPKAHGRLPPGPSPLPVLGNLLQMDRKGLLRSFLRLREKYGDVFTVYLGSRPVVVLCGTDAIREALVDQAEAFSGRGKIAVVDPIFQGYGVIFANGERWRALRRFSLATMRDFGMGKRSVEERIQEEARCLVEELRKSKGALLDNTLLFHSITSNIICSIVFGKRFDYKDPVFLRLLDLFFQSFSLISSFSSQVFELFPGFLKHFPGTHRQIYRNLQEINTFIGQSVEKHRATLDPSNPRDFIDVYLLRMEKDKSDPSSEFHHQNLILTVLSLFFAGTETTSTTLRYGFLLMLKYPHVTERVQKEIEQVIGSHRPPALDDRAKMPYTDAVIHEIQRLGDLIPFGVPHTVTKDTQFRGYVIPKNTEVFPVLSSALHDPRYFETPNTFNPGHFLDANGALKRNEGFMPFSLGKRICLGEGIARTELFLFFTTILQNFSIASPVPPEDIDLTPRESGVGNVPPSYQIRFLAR
Test: type I spectral change

binding result: binds
B1: rabbit cytochrome b5 (natural protein, UniProt P00169 1-134, looked up)
chain: MAAQSDKDVKYYTLEEIKKHNHSKSTWLILHHKVYDLTKFLEEHPGGEEVLREQAGGDATENFEDVGHSTDARELSKTFIIGELHPDDRSKLSKPMETLITTVDSNSSWWTNWVIPAISALIVALMYRLYMADD
modifications: uniformly 15N-labeled (in the NMR experiments)
